From PMC9545174 (2022) come the findings set out here.

Usually koff stands for the rate constant with which the complex falls apart. Low values mean slow dissociation, high ones fast dissociation.

This test has as its target wildtype SARS-CoV-2 RBD Protein (SARS-CoV-2, UniProt P0DTC2 319-541). As to the kind of experiment: SPR. In general terms: SPR reads the build-up and loss of mass on a sensor chip optically.

B1: 11-2G (antibody, V domains shown)
VH: QVQLQQAGPGLVKPSQTLSLTCAISGDSVSNNSAIWNWIRQSPSRGLEWLGRTYYRSKWYNDYAVSVSSRITINPDTSKNQFSLQLNSVTPEDTAVYYCARVDILTGYSFDYWGQGTLVTVSS
VL: EIVLTQSPGTLSLSPGERATLSCRASQSVSSSFLAWYQQKPGQAPRFLIYGESYRATGIPDRFSGSGSGTDFTLTISRLEPEDFAVYYCQQYGSSLTFGGGTKVEIK
The molecule B1 showed a koff of 0.000568 s⁻¹.

B2: 18-4A (antibody, V domains shown)
VH: QVQLQQSGPGLVKPSQTLSLTCAISGDSVSNNSAAWNWIRQSPSRGLEWLGRTYYRSKWYNDYAVSVSSRITINPDTSKNQFSLQLNSVTPEDTAVYYCAREGALLWFGEGAFDYWGQGTLVTVSS
VL: EIVLTQSPGTLSLSPGERATLSCRASHIVSSSYLAWYQQKPGQAPRFLIYGASSRATGIPDRFSGSGSGTDFTLTISRLEPEDFAVYYCQQYAGSPFTFGPGTKVDIK
For the molecule B2, the koff was determined as 0.000134 s⁻¹.
